Among the data in article PMC10963267 (2023) are Kd values, retold here.

Among the targets are IL70106; IL70103; IL70109; IL70107; IL70094; IL70092; IL70093; IL70098; IL70095; IL70096; IL70099; IL70101; IL70104; IL70108; IL70110; IL70097.
Common to all, as to assay: BLI
A general note: In BLI a coated tip is dipped into the sample, and binding shifts an interference pattern.

B1: human interleukin-7 (huIL-7), biotinylated (ligand)
chain: DCDIEGKDGKQYESVLMVSIDQLLDSMKEIGSNCLNNEFNFFKRHICDANKEGMFLFRAARKLRQFLKMNSTGDFDLHLLKVSEGTTILLNCTGQVKGRKPAALGEAQPTKSLEENKSLKEQKKLNDLCFLKRLLQEIKTCWNKILMGTKEH
modifications: biotin
Usually Kd stands for the equilibrium constant for the complex coming apart. Lower therefore signals a tighter complex. With B1, the Kd with IL70106 amounted to 2.92 nM; with IL70103, 0.657 nM; in the experiment with IL70109, 1.48 nM; with IL70107, 2.94 nM; with IL70094, 0.754 nM; in the experiment with IL70092, 0.909 nM. For the same molecule, the Kd with IL70093 came to 0.525 nM; with IL70098 it was 0.52 nM; in the experiment with IL70095 it was 0.429 nM; in the experiment with IL70096, 0.708 nM; with IL70099 it was 1.53 nM; with IL70101, 1.14 nM. The Kd in the experiment with IL70104 amounted to 2.64 nM; with IL70108, 2.55 nM; with IL70110, 0.824 nM; with IL70097 it was 1.79 nM.
